The values that follow come from paper PMC7544224 (Nucleic Acids Research, 2020).

Data set [1] deals with T1, YefM antitoxin without tag (pET22b-yefM), as in the heterohexamer (S. aureus (NCTC8325 strain), UniProt A0A0B4ND47 1-83).
T1 sequence (looked up): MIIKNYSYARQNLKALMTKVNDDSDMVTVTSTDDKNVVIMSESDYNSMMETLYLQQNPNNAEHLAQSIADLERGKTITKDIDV
The experiment in a line: SEC-MALS. On the technique in general: In gel filtration, larger molecules generally elute earlier.

Data set [2] concerns the molecule itself. Briefly: SEC-MALS.
In data set [3] the target is T2, YefM (antitoxin; in heterohexamer, YoeB2-YefM4);YoeB (toxin; in heterohexamer, YoeB2-YefM4) (Staphylococcus aureus …, UniProt Q2G285;Q2G286 1-83;1-88, |).
T2 sequence 1: T1 sequence (looked up)
T2 sequence 2: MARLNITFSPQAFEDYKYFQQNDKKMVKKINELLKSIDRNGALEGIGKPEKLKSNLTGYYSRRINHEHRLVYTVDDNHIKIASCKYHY
Briefly: ITC.

By stoichiometry N is commonly meant the number of molecules, sites or subunits per partner or assembly.

Changes are numbered by the printed parent chain.

B1: YoeB toxin with N-terminal 6xHis tag (pET28a-yoeB) (natural protein)
chain: T2 sequence 2 with D23N
Take B1: the “stoichiometry N” value in data set [1] amounted to 0.5 YoeB per YefM.

B2: YefM antitoxin, expressed alone (natural protein, S. aureus (NCTC8325 strain), UniProt A0A0B4ND47 1-83, looked up)
chain: T1 sequence (looked up)
Consider B2, for which, in data set [2], the “stoichiometry N” value was determined as 2.

B3: promoter core mutant (ATTGTACA to ATTTTAAA) (dsDNA)
DNA 1: TTATTTTAAAGATATTTTTAAAATTG
DNA 2: CAATTTTAAAAATATCTTTAAAATAA
Turning to B3, the binding result in data set [3] is recorded as “no binding”.

B4: promoter flank mutant (ATTGTACA to AGCGTACG) (dsDNA)
DNA 1: TTAGCGTACGGATATGCGTACGCTTG
DNA 2: CAAGCGTACGCATATCCGTACGCTAA
B4: the binding result in data set [3] is listed as “no binding”.
